Experimental data from the DeepSol protein solubility set.

Experiment: soluble on expression in E. coli; label from the status in PepcDB or PDB records

Row | Sequence | soluble on expression in E. coli
1 | DLKQREQALEDSRQRYQTLLQAAPDPIFVADAETGEIVEANAAAEELRGQPRDDIIGRHQTELHPEEAGGLYEDVFEQAFDDASTITELPDGTQPELATPDGETVPIEISAAAVSLPDGPVLFGVFRDVS | not soluble
2 | MTEKKLLMGNEAIAFGAIEAGVQVVTGYPGTPSTEALETIARHAEKCGVYAEWSSNEKVALETAAGAAYSGAKALVTMKQVGLNVASDPLMSLTYIGVKGALVLLVADDPGPHSSQTEQDTRSFGHFANIPVLDPASPQEAYELTKLAFEISHQFEVPVILRTTTRVSHSSGDVELLNSEPSPVEAFC | not soluble
3 | MVSLRTSNRGIVMIDAVVTWVDGADPAHHAKRLRHQGEAGVHQAATAPTRFAHSGEIRFCVLSLLRFCPFVERIHIVTDDQHPAVLDPILDDPHWRDRIAVVDHRAIYGEHADLLPVFSSRSIETMIHRIPGLAPRFIYLNDDIFVGRPLDESHFFDGDRAVLRGRMQPFPNPLVTRLKRWLKRERPGYKTAQQAAARLTGRTSDYFLTEHQPHPMHRDRLASFYAGDPQALRRQAGHRFRSADQVSPIGLANHLEIEARAVIAPPLDVGYIRPGRPTGTALARTMERLCANGYASFCVQSLDAMSEADRRCVLEGLERHYALEHHHHHH | soluble
4 | SFFTCGPNEAMVVSGFCRSPPVMVAGGRVFVLPCIQQIQRISLNTLTLNVKSEKVYTRHGVPISVTGIAQVKIQGQNKEMLAAACQMFLGKTEAEIAHIALETLEGHQRAIMAHMTVEEIYKDRQKFSEQVFKVASSDLVNMGISVVSYTLKDIHDDQDYLHSLGKARTAQVQKDARIGEAEAKRDAGIREAKAKQEKVSAQYLSEIEMAKAQRDYELKKAAYDIEVNTRRAQADLAYQLQVAKTKQQIEEQRVQVQVVERAQQVAVQEQEIARREKELEARVRKPAEAERYKLERLAEAEKSQLIMQAEAEAASVRMRGEAEAFAIGARARAEAEQMAKKAEAFQLYQEAAQLDMLLEKLPQVAEEISGPLTSANKITLVSSGSGTMGAAKVTGEVLDILTRLPESVERLTGVSISQVNHKPLRTA | not soluble
5 | MAHHHHHHMFSLSDTQLGISPMRQFSPSLFRQNKVAEKYRATQGTGIGPQYHQLSDGRLVRPGTSHTKLLPMLEPGETVDWEKLPSYYHWYPKEELHDYIENTTWREIKGRPTGEPLEKRLRKAITGGTFEKDEAPAPDLMPWNSATIPITKFPHERNDEEIIVVDPKTGRIIGMERETYERWKRMMEERRAGLPESDPVEYDQERYVTNKDGVVFDLSKMKYRPIFEGRWNPRRQQSTGRTNPIMT | soluble
6 | MKIAVLGATGRAGSAIVAEARRRGHEVLAVVRDPQKAADRLGATVATLVKEPLVLTEADLDSVDAVVDALSVPWGSGRGYLHLDFATHLVSLLRNSDTLAVFILGSASLAMPGADHPMILDFPESAASQPWYDGALYQYYEYQFLQMNANVNWIGISPSEAFPSGPATSYVAGKDTLLVGEDGQSHITTGNMALAILDQLEHPTAIRDRIVVRDADLEHHHHHH | soluble
7 | MWRVGVYSSLRGYKRLNFCCEMLIAAYPKVGECAREGLMDKEVCINAAKGRFLGLRLPELFGGSDMRLNRSCRRRNMKLAAWCMLIQCDSRGGNHAAEVREIGDITKIAICQQCDFECAGPSANFKVTRLQGLRTLKAANRSESLNVEGCYALQSLLM | not soluble
8 | MKRDGHTHTEFCPHGTHDDVEEMVLKAIELDFDEYSIVEHAPLSSEFMKNTAGDKEAVTTASMAMSDLPYYFKKMNHIKKKYASDLLIHIGFEVDYLIGYEDFTRDFLNEYGPQTDDGVLSLHFLEGQGGFRSIDFSAEDYNEGIVQFYGGFEQAQLAYLEGVKQSIEADLGLFKPRRMGHISLCQKFQQFFGEDTSDFSEEVMEKFRVILALVKKRDYELDFNTAGLFKPLCGETYPPKKIVTLASELQIPFVYGSDSHGVQDIGRGYSTYCQKLEHHHHHH | soluble
9 | MRLEKFIHLLGERGFDGALISPGTNLYYLTGLRLHEVGERLAILAVSAEGDYRFLAPSLYENVVNNFPATFWHDGENPYAKLREILEELGISKGRILIEDTMRADWLIGIMKLGKFTFQPLSSLIKELRMIKDKEEVKMMEHASRIADKVFEEILTWDLIGMKERELALKIELLIRELSDGIAFEPIVASGENAANPHHEPGERKIRKGDIIILDYGARWKGYCSDITRTIGLGELDERLVKIYEVVKDAQESAFKAVREGIKAKDVDSRAREVISKAGYGEYFIHRTGHGLGLDVHEEPYIGPDGEVILKNGMTFTIEPGIYVPGLGGVRIEDDIVVDEGKGRRLTKAERELIIL | soluble
10 | GLIDAHGHVIGYGHSLLRVDLVNATSELDAVNRTISYAKDNPSMSWILGRGWNQVQWSNNSYPNAKSLDEAFPNKPVWLRRVDGHAGWANSKAMALAGITSASKAPVGGDIIKDKNGLPTGIFIDNAMTLITASITPPSPMEDKIALKRAMHSLASLGLTSVHDAGIEQKDIALYKTLASEGNMTIRINGMLYLPSTNWQQQLEQGPYRTEDEMFAVNSVKIQADGALGSRGASLINDYSDHSGHKGLLLHDKKSLQHYIDFAMNAGFQVNTHAIGDNANKLILDLYQQAIQKSQTKALRHRIEHAQVLRLEDISRFSSLNVIASMQATHATSDKNMAVTRLGGKRILGAYAWRKLLDSNTIIAAGSDFPVESPNPFFGLHASITRQDHKDLPIGGWYADQKMTRTEALRSFTIDAAYAGHQEKLIGSLEAGKKADFILLADDLLTMPESTIWQSQVSQTWVAGKKVFSAIDVPSVE | not soluble
11 | DNNRWIPIKPGTDSALVLGMIQWIIENQRYNKTFLAQPGANAMKRAGTAHWCNATHLVISDEQHPRNGTFLRASDLNLPFEGEALSDSDPYVIVEEQSGQFGVHTQTEEATLFVDKTVSLASGKVRVKSSLQRLKEEAFKYSLAFYSQQCEIPVEQIAELAKRFTSCGTKAVVDTHGGNMHTNGFYNSFTIMMLNALIGNINMKGGAMAKAGGYPTSAAGPRYDFTKFAGKVGPKGVFLSRSKFPYHKTSEYKRRVEAGKSPYPTRAPWYPFAAPLLTEHLSAAIDGYPYRVKAWINHMANPMYGVPGLKTLLEDKLKDPKQLGLIVSVDAFINETTALSDYIVPDTVTYESWGMATPWHDVPVKTITARWPIVEARTEKTADGRSICLENFLIDVAKKMQLGGFGDNAIQDAQGNWHALHSAEDFYLRSAANLAYVKGGVPEVSAEDIAWSGLERLMPAMQSTLTADEMKRVAFIFARGGRFENATEAYQGEQMKHKWTRPVAIWNERVGSARNTMTGDFYTGCPTWHPQKLADGTPMEEQFPSSEWPFSLTNFKSNIHSAVSNLSPRLNSIKGVNPVYIHPIDAERAGIKTGDEFVIETPSASTKALAMIVSGIRPGTLGFEHGFGHTELGQRSHWIGDKQQPVKTRSQDGVNINDIGLIDPTREGKGVLLDWVVGAAARQSLPAKIRKA | not soluble
12 | MKISEIENTFKEKLSVSLKKQEDTIRRQSLAENQGKLEVMENMNRVLSEAIESLQSQHSKDTEIIKAGLRTKGDRVTYVDNLRVEKKALEETVSQLRSENDKLKKIIRGESTNKPVLRSRTTKP | not soluble
13 | MGHHHHHHSHMSGGEVVCSGWLRKSPPEKKLKRYAWKRRWFVLRSGRLTGDPDVLEYYKNDHAKKPIRIIDLNLCQQVDAGLTFNKKEFENSYIFDINTIDRIFYLVADSEEEMNKWVRCICDICGFNPTEEDPVK | not soluble
14 | MGRKEMLQNGVQQVFYEEEWYPPISEAVKNLTVEQACWQPEGAASNTIWENVNHLLIFKERLLSRLHEDDTFVAPQNNDETFIQGGPNDDAAWQQTVKRTLQVHDALQSSLTALQEAELDQLSPSLPVWQQYMNILLHDAYHTGQIIQLRKLQGSWPTHRSYL | not soluble
15 | QTFGHGQARAFVLSPVMPVWDQGAFAGPLIEHFIRSGHQVTVFDSLSLPAVPDECFSGFAERWADALEPWGVPDVLVGVALGGALAQALAGISFLSVTPALLLLSSPSKADALLDARLGRMADLAEQGHVRQAKRLLDELVLPEGQAHAEQDRFDTETDALLAPQGRRLVRGFRLLDGVNVSERLCDYEGRVLSVFGGKSQLVGADHVLRTKGSNQHS | not soluble
16 | MAQMTMVQAITDALRIELKNDPNVLIFGEDVGVNGGVFRATEGLQAEFGEDRVFDTPLAESGIGGLAIGLALQGFRPVPEIQFFGFVYEVMDSICGQMARIRYRTGGRYHMPITIRSPFGGGVHTPELHSDSLEGLVAQQPGLKVVIPSTPYDAKGLLISAIRDNDPVIFLEHLKLYRSFRQEVPEGEYTIPIGKADIKREGKDITIIAYGAMVHESLKAAAELEKEGISAEVVDLRTVQPLDIETIIGSVEKTGRAIVVQEAQRQAGIAANVVAEINERAILSLEAPVLRVAAPDTVYPFAQAESVWLPNFKDVIETAKKVMNF | soluble
